Reference: the MegaScale stability set (Tsuboyama et al. 2023)

B1: HHH_rd2_0155 (parent)
chain: PPDDERKKAEKAARSGNEEKAREILERLGYSEDEARELAKRLR
B2: HEEH_KT_rd6_0007 (parent)
chain: SIEEEIKKAEEAKEKGKTFIHGDFVATTEELLDELLKRLRKKL

Variants of: B1
Assay: folding stability dG (cDNA display proteolysis); higher = more stable
Conditions: PBS, room temperature

Folding stability dG [kcal/mol] of substitutions, site by site:
R36: T 1.31; Q 1.34; M 1.57; V 1.26; D 0.859; W 1.68; A 1.56; I 1.57; N 1.14; K 1.7; H 1.17; G 0.823; Y 1.64; S 1.27; E 1.23; F 1.56; P -0.165; C 0.956; L 1.51
Y30: V 0.808; T 0.175; W 1.34; R 0.36; S 0.426
A35: H 0.728; L 1.02; G 0.605; P -0.246; N 0.635; V 0.99; M 1.02; W 1; K 0.591; R 0.564; Y 0.905; I 1.42; E 0.141; Q 0.88; T 0.991; D 0.38; F 0.989; S 1.25
L38: N -0.062; S 0.129; W 1.49; I 2.04; T 1.09; V 1.12; Q 0.725; E 1.46; F 1.51; R 0.567; D -0.841; K 0.756; M 2.09; Y 1.67; H 0.687; A 0.925; G -0.173
E32: G 1.49; I 1.88; M 1.78; Y 1.94; R 1.96; P 2.48; T 1.93; K 2.21; Q 1.99; C 1.86; D 1.4; F 1.96; S 2.08; L 1.66; W 1.42; N 1.51; A 2.33; H 1.97; V 2
R41: D 0.97; H 1.66; K 1.98; A 1.56; I 1.6; L 2.04; S 1.43; W 1.85; T 1.37; N 1.39; C 1.92; Y 1.73; G 0.69; M 1.86; Q 1.78; V 1.35; E 1.05; F 1.91
R43: L 1.87; D 0.613; I 1.55; P 0.532; Y 2.39; K 1.79; N 1.44; M 2.09; V 1.77; W 2.31; F 2.48; A 2.29; E 0.924; S 1.85; Q 1.45; H 1.91; T 1.5; G 1.48
E34: D 1.87; G 0.998; Y 1.51; P 0.438; N 1.21; Q 1.81; F 1.39; C 1.92; A 1.78; M 1.59; L 1.35; T 1.34; K 1.25; S 1.25; H 1.38; V 1.39; W 1.08; R 1.4; I 1.44
D33: F 1.77; W 1.83; G 1.59; P 1.55; Y 1.91; E 2.19; K 1.92; H 1.86; I 1.87; N 1.79; L 1.85; R 1.79; Q 2.09; A 2.25; S 2.13; V 1.71; T 1.92; M 1.8
S31: L 0.779; Q 1.2; F 0.694; V 0.347; K 1.35; T 2.13; I 0.504; W 0.564; A 1.28; N 1.66; E 1.03; M 1.03; G 1.44; H 1.02; D 1.36; P 1.46; Y 0.287; R 1.07
E37: M 2.16; A 2.27; C 2.36; N 1.82; K 2.1; L 2.17; V 2.03; W 2.41; R 2.34; D 1.73; H 1.85; I 2.21; Y 2.17; F 1.98; P -0.452; T 1.95; Q 2.1; S 2.05; G 1.38
K40: F 1.8; Y 1.98; M 2.22; E 1.76; V 1.43; W 2.08; N 1.79; G 1.44; S 1.97; A 2.06; Q 1.84; H 2.39; R 2.52; I 1.61; L 1.81; D 1.31; T 1.63; P 0.1
A39: P -0.361; V 2.33; S 1.02; Y 1.66; G 0.397; E 0.651; T 1.21; I 2.75; K 0.184; D -0.2; R 0.796; Q 0.366; F 1.52; H 0.706; C 2.23; N 0.26; L 2.36; M 1.75; W 1.01
L42: R 0.996; M 2.39; K 0.832; N 0.469; G 0.615; I 1.57; A 1.2; D 0.37; Y 2.46; V 0.97; Q 0.824; P 0.434; H 0.87; E 0.286; F 2.26; T 0.69; W 3.74; C 1.56; S 0.87

Variants of: B2
Assay: as above
Conditions: PBS, room temperature

Folding stability dG [kcal/mol] of substitutions, site by site:
E3: W 1.7; S 1.07; I 1.36; D 1.01; K 1.16; L 1.52; H 1.12; P 0.866; G 0.881; Q 1.22; A 1.27; F 1.23; N 0.919; M 1.45; V 1.24; R 1.2; T 1.04; Y 1.28
S1: R 1.27; G 1.11; W 1.78; Y 1.36; L 1.23; V 1.01; A 1.21; P 1.01; M 1.16; I 0.975; T 1.28; E 1.11; N 1.19; K 1.14; Q 1.07; H 1.13; F 1.23; D 1.24
E5: W 2.01; L 2.35; F 1.74; N 1.05; I 2.4; D 1.23; S 1.31; P 0.677; Q 1.61; T 1.84; M 2.05; A 2.05; H 1.11; K 1.06; G 0.897; V 2.13; R 1.09
E4: P 0.777; I 1.03; D 1.27; F 1.03; G 0.862; T 0.909; A 1.25; H 1.06; R 1.07; K 1; Q 1.11; C 1.78; L 1.21; V 0.909; W 1.27; M 1.26; Y 1.06; S 1.12; N 1.02
I2: Q 0.766; L 1.47; S 0.818; M 0.866; N 0.583; A 0.756; P 0.683; V 1.08; G 0.715; Y 0.989; T 0.763; K 0.732; W 1.04; H 0.643; R 0.776; F 0.811; D 0.705; E 0.545
